The test deals with T1, TRF2 (human), Q15554.
T1 chain: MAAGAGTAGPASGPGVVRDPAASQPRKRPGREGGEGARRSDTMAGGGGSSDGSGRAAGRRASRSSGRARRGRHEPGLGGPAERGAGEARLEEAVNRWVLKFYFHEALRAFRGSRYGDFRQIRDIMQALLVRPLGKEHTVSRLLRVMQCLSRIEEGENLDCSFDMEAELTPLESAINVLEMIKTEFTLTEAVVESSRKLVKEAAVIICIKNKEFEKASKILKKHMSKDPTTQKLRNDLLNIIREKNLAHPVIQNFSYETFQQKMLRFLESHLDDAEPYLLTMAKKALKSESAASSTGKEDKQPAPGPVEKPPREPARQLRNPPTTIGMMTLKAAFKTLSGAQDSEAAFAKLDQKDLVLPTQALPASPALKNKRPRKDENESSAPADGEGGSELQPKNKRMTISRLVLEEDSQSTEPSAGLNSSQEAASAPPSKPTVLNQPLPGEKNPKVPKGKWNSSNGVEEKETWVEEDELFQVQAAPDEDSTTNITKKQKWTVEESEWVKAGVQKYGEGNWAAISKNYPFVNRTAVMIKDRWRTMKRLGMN
To be noted: remark: other sources report otherwise.

B1: TRF2, Q15554 1-542 (natural protein)
chain: MAAGAGTAGPASGPGVVRDPAASQPRKRPGREGGEGARRSDTMAGGGGSSDGSGRAAGRRASRSSGRARRGRHEPGLGGPAERGAGEARLEEAVNRWVLKFYFHEALRAFRGSRYGDFRQIRDIMQALLVRPLGKEHTVSRLLRVMQCLSRIEEGENLDCSFDMEAELTPLESAINVLEMIKTEFTLTEAVVESSRKLVKEAAVIICIKNKEFEKASKILKKHMSKDPTTQKLRNDLLNIIREKNLAHPVIQNFSYETFQQKMLRFLESHLDDAEPYLLTMAKKALKSESAASSTGKEDKQPAPGPVEKPPREPARQLRNPPTTIGMMTLKAAFKTLSGAQDSEAAFAKLDQKDLVLPTQALPASPALKNKRPRKDENESSAPADGEGGSELQPKNKRMTISRLVLEEDSQSTEPSAGLNSSQEAASAPPSKPTVLNQPLPGEKNPKVPKGKWNSSNGVEEKETWVEEDELFQVQAAPDEDSTTNITKKQKWTVEESEWVKAGVQKYGEGNWAAISKNYPFVNRTAVMIKDRWRTMKRLGMN
In general, stoichiometry N refers to the number of molecules, sites or subunits per partner or assembly. B1: the stoichiometry N amounted to 2.

Source of the values: publication doi:10.1101/2021.04.30.442189.
